FACS fluorescence data for twelve molecules are collected here from patent publication US20230049752A1 (University of California, published 2023).

In assay [1] the target is T1, mouse Claudin-6 (CLDN6) (mouse, UniProt Q9Z262 1-219).
T1 construct: whole, on cells; GFP fusion on engineered HEK293T cells; also called Mouse CLDN6; murine CLDN6
T1 sequence (looked up): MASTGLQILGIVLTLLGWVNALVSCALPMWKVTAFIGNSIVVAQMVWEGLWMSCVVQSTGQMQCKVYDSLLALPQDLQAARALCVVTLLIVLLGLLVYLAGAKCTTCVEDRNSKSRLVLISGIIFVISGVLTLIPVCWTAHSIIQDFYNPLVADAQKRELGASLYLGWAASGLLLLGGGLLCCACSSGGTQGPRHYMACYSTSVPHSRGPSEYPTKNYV
The assay is described as follows: FACS, 293T clone expressing mouse CLDN6, dose not stated (2nd Ab only 1061.72). The method, then:
Two doses (1.5 μg or 0.3 μg) of the humanized antibodies were tested for binding to either human CLDN6 or murine CLDN6 which proteins were expressed by engineered 293T clones.
Background: In flow cytometry, cells or beads pass a laser one at a time.

The target in assay [2] is human Claudin-6 (CLDN6) (human) (UniProt P56747). The assay is described as follows: FACS, 0.3 ug Ab, ARK2 cells (2nd Ab only 1351.21).
The target is the same in assay [3]. The assay is described as follows: FACS, 1.5 ug Ab, ARK2 cells (2nd Ab only 1351.21).
The target is the same in assay [4]. As to the kind of experiment: FACS, 0.3 ug Ab, 293T clone expressing human CLDN6 (2nd Ab only 768.07).
For assay [5] the target is unchanged. The assay is described as follows: FACS, 1.5 ug Ab, 293T clone expressing human CLDN6 (2nd Ab only 768.07).
Assay [6] shares this target. As to the kind of experiment: FACS, 1.5 ug Ab, OVCA429 cells (2nd Ab only 885.77).

B1: AB9-4 (antibody, V domains shown)
VH: QVQLVQSGAEVKKPGASVKMSCKASGYRFTDYNMHWVRQAPGQGLEWIGYINPNNGGTNYAQKFQGRATLTVDTSTSTAYMELSSLRSEDTAVYYCARDYLYFFDCWGQGTLLTVSS
VL: DIQMTQSPSSLSASVGDRVTITCRASQTIGTWLAWYQQKPGKAPKLLIYAAASLADGVPSRFSGSGSGTDFTFTISSLQPEDFVTYYCQQLYSIPRTFGQGTKLEIK
notes: humanized
B1: the FACS fluorescence in assay [1] was found to be 1710; in assay [2] it was 1120; in assay [3], 1550; in assay [4], 15300; in assay [5], 34300; in assay [6] it was 1110.

B2: AB3-4 (antibody, V domains shown)
VH: EVQLLESGGGLVQPGGSMRLSCAASGFTFSNYWMNWVRQAPGKGLEWVAQIRLKSDNYATHYADSVKGRFTISRDDSKNTVYLQMNSLRAEDTGVYYCNDGPPSGYWGQGTLLTVSS
VL: DIQMTQSPSSLSASVGDRVTITCRISENIYSYLAWYQQKPGKAPKLLIYNAKILVEGVPSRFSGSGSGTDFTLTISSLQPEDFATYYCQHHYTVPWTFGQGTKLEIK
notes: humanized
Take B2: the FACS fluorescence amounted to 1520 in assay [1]; 1320 in assay [2]; 1460 in assay [3]; 11600 in assay [4]; 55800 in assay [5]; 2960 in assay [6].

B3: AB3-5 (antibody, V domains shown)
VH: EVQLLESGGGLVQPGGSMRLSCAASGFTFSNYWMNWVRQAPGKGLEWVAQIRLKSDNYATHYADSVKGRFTISRDDSKNTVYLQMNSLRAEDTGVYYCNDGPPSGYWGQGTLLTVSS
VL: DIQMTQSPSSLSASVGDRVTITCRISENIYSYLAWYQQKPGKAPKLLVYNAKILVEGVPSRFSGSGSGTDFTLTISSLQPEDFGTYYCQHHYTVPWTFGQGTKLEIK
notes: humanized
As to B3, the FACS fluorescence in assay [1] came to 783; in assay [2], 1280; in assay [3] it was 2910; in assay [4] it was 13300; in assay [5] it was 48600; in assay [6], 2950.

B4: AB4-chim (antibody, V domains shown)
VH: QVQLQQSGAELARPGASVKMSCKASGYTFTSYTMHWIKQRPGQGQEWIGYINPSSTYTHYIKKFKDKATLTADKSSSTAYMQLRSLTSEDSAVYYCSRGELGGFAYWGQGTLVTVSA
VL: DVVMTQTPLSLPVSLGDQASISCRSSQSLVHSDGNTYLNWYLQKPGQSPKLLIYKVSNRFSGVPDRFSGSGSGTDFTLKIRRVEAEDLGVYFCSQSTHVPYTFGGGTKLEIK
Consider B4, for which the FACS fluorescence was 3640 in assay [1]; 19100 in assay [2]; 38400 in assay [3]; 176000 in assay [4]; 327000 in assay [5]; 64800 in assay [6].

B5: AB1-Chim (antibody, V domains shown)
VH: QVQLQQSAAELARPGASVKMSCKASGYTFTTYTMHWVKQRPGQGLEWIGFINPSSGYTDYNQKFKDRTTLTADKSSSTVYMQLSSLTSEDSAVYYCANGDYYVAYWGQGTLVTVSA
VL: QIVLTQSPAIMSASLGERVTMTCTASSSVSSTYFHWYQQKPGSSPKLWIYSTSNLASGVPRRFSGSASGTSYSLTISSMEAEDAATYYCHQYHRSPLTFGAGTKLELK
As for B5, the FACS fluorescence in assay [1] was 514000; in assay [2] it was 58800; in assay [3], 51900; in assay [4] it was 312000; in assay [5], 364000; in assay [6] it was 177000.

B6: AB11-2 (antibody, V domains shown)
VH: EVQLVESGGGLVQPGGSLRLSCAASGFTFSSFGMHWVRQAPGKGLEWVAYISSDSRTIYYADSVKGRFTISRDNAKNSLYLQMNSLRAEDTAVYYCARDYGRTYEAYWGQGTLVTVSS
VL: DIVMTQSPDSLAVSLGERATINCRASKSVSTSGYSYIHWYQQKPGQPPKLLIYLASNLESGVPDRFSGSGSGTDFTLTISSLQAEDVAVYYCQHSRELPLTFGQGTKLEIK
notes: humanized
Turning to B6, the FACS fluorescence in assay [1] was 7160; in assay [2], 1400; in assay [3], 1940; in assay [4], 1290; in assay [5], 2560; in assay [6], 2690.

B7: AB11-3 (antibody, V domains shown)
VH: EVQLVESGGGLVQPGGSLRLSCAASGFTFSSFGMHWVRQAPGKGLEWVAYISSDSRTIYYADSVKGRFTISRDNAKNSLYLQMNSLRAEDTAVYYCARDYGRTYEAYWGQGTLVTVSS
VL: DIVLTQSPDSLAVSLGERATINCRASKSVSTSGYSYIHWYQQKPGQPPKLLIYLASNLESGVPDRFSGSGSGTDFTLTISSVQAEDVAVYYCQHSRELPLTFGQGTKLELK
notes: humanized
Consider B7, for which the FACS fluorescence in assay [1] is 5520; in assay [2] it was 1320; in assay [3] it was 1540; in assay [4], 1010; in assay [5] it was 2360; in assay [6] it was 2200.

B8: AB11-chim (antibody, V domains shown)
VH: DVQLVESGGGLVQPRGSRKLSCAASGFTFSSFGMHWVRQAPEKGLEWVAYISSDSRTIYYADTVKGRFTISRDNPTNTLFLQMTSLRSEDTAMYYCARDYGRTYEAYWGQGTLVTVSA
VL: DIVLTQSPASLAVSLGQRATISCRASKSVSTSGYSYIHWYQQKPGQPPKLLIYLASNLESGVPARFSGSGSGTDFTLNIHPVEEEDAATYYCQHSRELPLTFGAGTKLELK
In the case of B8, the FACS fluorescence turned out to be 5490 in assay [1]; 1320 in assay [2]; 1260 in assay [3]; 1670 in assay [4]; 3490 in assay [5]; 2440 in assay [6].

B9: AB4-4 (antibody, V domains shown)
VH: QVQLVQSGAEVKKPGASVKMSCKASGYTFTSYTMHWIRQAPGQGLEWIGYINPSSTYTHYAQKFQGRATLTADTSTSTAYMELSSLRSEDTAVYYCSRGELGGFAYWGQGTLVTVSS
VL: DVVMTQSPLSLPVTLGQPASISCRSSQSLVHSDGNTYLNWYQQRPGQSPRLLIYKVSNRFSGVPDRFSGSGSGTDFTLKISRVEAEDVGVYYCSQSTHVPYTFGQGTKLEIK
notes: humanized
B9: the FACS fluorescence was 741 in assay [1]; 1050 in assay [2]; 1400 in assay [3]; 14100 in assay [4]; 49000 in assay [5]; 1200 in assay [6].

B10: AB4-3 (antibody, V domains shown)
VH: QVQLVQSGAEVKKPGASVKVSCKASGYTFTSYTMHWVRQAPGQGLEWMGYINPSSTYTHYAQKFQGRVTMTADTSTSTVYMELSSLRSEDTAVYYCSRGELGGFAYWGQGTLVTVSS
VL: DVVMTQSPLSLPVTLGQPASISCRSSQSLVHSDGNTYLNWYQQRPGQSPRLLIYKVSNRFSGVPDRFSGSGSGTDFTLKISRVEAEDVGVYYCSQSTHVPYTFGQGTKLEIK
notes: humanized
Take B10: the FACS fluorescence in assay [1] amounted to 671; in assay [2], 1190; in assay [3] it was 1520; in assay [4], 14300; in assay [5], 47800; in assay [6], 1160.

B11: AB4-5 (antibody, V domains shown)
VH: QVQLVQSGAEVKKPGASVKMSCKASGYTFTSYTMHWIRQAPGQGQEWIGYINPSSTYTHYAQKFQGRATLTADTSTSTAYMELSSLRSEDTAVYYCSRGELGGFAYWGQGTLVTVSS
VL: DVVMTQSPLSLPVTLGQPASISCRSSQSLVHSDGNTYLNWYQQRPGQSPRLLIYKVSNRFSGVPDRFSGSGSGTDFTLKISRVEAEDVGVYYCSQSTHVPYTFGQGTKLEIK
notes: humanized
Take B11: the FACS fluorescence is 2000 in assay [1]; 967 in assay [2]; 1200 in assay [3]; 16800 in assay [4]; 43400 in assay [5]; 1350 in assay [6].

B12: AB3-chim (antibody, V domains shown)
VH: EVKLEESGGGLVQPGGSMKLSCVASGFTFSNYWMNWVRQSPEKGLEWVAQIRLKSDNYATHYAESVKGRFTISRDDSKRSVYLQMNNLRAEDTGTYYCNDGPPSGCWGQGTTLIVSS
VL: DIQMTQSPASLSASVGETVTITCRISENIYSYLAWYQQKQGKSPQLLVYNAKILVEGVPSRFSGSGSGTQFSLKINSLQPEDFGNYYCQHHYTVPWTFGGGTKLEIK
As for B12, the FACS fluorescence in assay [1] is 67900; in assay [2], 17100; in assay [3], 29100; in assay [4], 267000; in assay [5], 459000; in assay [6] it was 138000.
